According to patent CN114621343A:

Assays:
[1] = biological target: JEV病毒抗原 (JEV Beijing-1株) (Japanese encephalitis virus, Beijing-1 strain); assay: cell-based or functional assay
[2] = biological target: JEV包膜E蛋白 (Japanese encephalitis virus (strain not stated)); assay: SPR, Biacore T200; 2G1 captured on CM5 chip, E protein as analyte

B1: 乙型脑炎病毒鼠源性单克隆抗体2G1 (antibody, V domains shown)
VH: DVQLQESGLDRVKPSQSLSLTCTVTGYSIISGYSWHWIRQFPGKKLEWMGYIHYSGSATYSPSLKSRISITRDTSKNQFFLQLNSVTTEDTATFYCARGDGSSPYYGMDHWGQGTSVTVSS
VL: DIVLTQSPPSLAVSLGQRATISCRASESVEYSGTGLIHWYQQKPGQPPKLLIYAASSVESGVPARFSGSGSGTDFSLNIHPVEDDDLALYFCQQSRKLPWTFGGGSKLEINR
- 半数中和浓度(Neut50) [1]: 0.149 µg/mL
- Kd [2]: 16.5 nM
- koff [2]: 7.06e-05 s⁻¹
- kon [2]: 4270 M⁻¹ s⁻¹
